Residue numbers refer to the chain shown, from its start.
How the values were obtained:
[1] = target: T1, CD200R1 on Jurkat-CD200R1 cells (Homo sapiens, UniProt Q8TD46); experiment: Cell binding assay (flow cytometry), Jurkat-CD200R1 cells; format: cell-based
T1 construct: host or cells: Jurkat
T1 sequence (Q8TD46 25-348): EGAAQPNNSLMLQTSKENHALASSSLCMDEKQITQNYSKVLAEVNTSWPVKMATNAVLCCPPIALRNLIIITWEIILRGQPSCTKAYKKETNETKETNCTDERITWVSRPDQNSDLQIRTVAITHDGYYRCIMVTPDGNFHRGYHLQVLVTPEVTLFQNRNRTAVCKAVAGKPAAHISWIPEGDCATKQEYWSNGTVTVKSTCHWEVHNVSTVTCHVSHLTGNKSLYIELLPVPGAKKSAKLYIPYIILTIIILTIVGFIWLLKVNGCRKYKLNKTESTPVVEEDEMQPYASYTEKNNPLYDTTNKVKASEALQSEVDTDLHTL
Description: The binding ability of the antibodies identified using unique multifaceted antibody discovery technology was identified in HH (CRL-2105) cells, which endogenously express CD200R1, and Jurkat-CD200R1 cells (Source: DiscoverX), which were generated by intranuclear injection of CD200R1 cDNA.
HH and Jurkat-CD200R1 cells were maintained in RPMI 1640 medium supplemented with 10% heat-inactivated FBS and 1% Penicillin/Streptomycin (P/S). The cells were washed by centrifugation at 130 g for 5 minutes. The cells were seeded onto 96-well round-bottom plates (SPL, #34296) at a density of 1×10^5 cells/well in Flow cytometry staining buffer (Invitrogen, #00-4222-26) or FACS buffer. The cells were treated with all 16 substances and the positive control LY3454738 (US 2020/0087395, I-4P, at Eli Lilly) a concentration of 500 nM in the IgG1 form. After incubation for 1 hour at 4° C., the cells were treated with Alexa-647 Goat anti-human IgG (H+L) cross-adsorbed secondary antibody (Invitrogen, #A21445) and incubated at 4° C. for an additional 30 minutes. […]
Cell-binding ability was determined in the same manner as in Example 12. For the six active substances primarily selected in Example 12, the isotype was changed to IgG4 or the LALAPG gene was mutated, and binding activity was determined in the two cell lines mentioned above.
Binding ability was determined in HH, an endogenous T cell line with high CD200R1 expression, and two additional overexpressing cell lines: U937-CD200R overexpressing cells, generated by intranuclear injection of human CD200R1 CDNA into the monocytic cell line U937 (CRL-1593.2) (Source: UMC Utrecht, the Netherlands) and Jurkat-CD200R overexpressing cells, were also cells engineered using a similar method.
All cell lines were maintained in RPMI 1640 medium supplemented with 10% heat-inactivated FBS and 1% penicillin/streptomycin (P/S) and cell binding was determined in the same manner as in Example 12. […]
Specific binding ability was determined using P001009 WT and antibody-optimized mutants, P001009v1, P001009v2, P001009v3, and P001009v4. […]

[2] = test system: TNF-α in U937-CD200R1 cells; experiment: TNF-α suppression in LPS-treated U937-CD200R1 cells (AlphaLISA); format: cell-based, human; conditions: for TNF-α: LPS-treated U937-CD200R1 cells, 24 h
Description: To determine the binding ability of the candidates to U937-CD200R1-overexpressing cell lines and verify the efficacy thereof, the anti-inflammatory effect of anti-CD200R1 antibodies was analyzed. First, 5×10^6 U937-CD200R1 cells were added to 12 ml of medium, treated with 30 ng/ml of Phorbol 12-myristate 13-acetate (Sigma Aldrich, #P1585), and reacted at 37° C. in 5% CO2 for 24 hours. After reaction, the medium was replaced with RPMI 1640 medium containing only 10% heat-inactivated FBS, and 5×10^6 cells were maintained at 37° C. in 5% CO2 for 24 hours.
Cells were seeded on duplicate onto 96-well round-bottom plates (SPL, #34296) at 1×10^5 cells/50 μl/well. P001009 WT, P001009v1, and the previously published CD200R antibody LY3454738 (US 2020/0087395, I-4P, Eli Lilly) as a positive control were used in this experiment. The drug was serially diluted 10-fold from a maximum concentration of 100 nM and treated to the cells at concentrations of 10 nM, 1 nM, […], respectively. Additional cells were treated with 100 nM of hIgG4 kappa isotype control (Crownvivo, #C0004) as a negative control. Untreated cells were seeded in the same amount of medium (RPMI 1640 containing 10% heat-inactivated FBS) and incubated at 37° C., 5% CO2 for 1 hour. To induce an inflammatory response in drug-treated cells, each well was treated with 10 μl of lipopolysaccharide from Salmonella typhosa (Sigma Aldrich, #L7895) at a concentration of 1 μg/ml. One well was left untreated to assess the induction of inflammatory cytokines. After thorough mixing, the cells were incubated at 37° C. and 5% CO2 for 24 hours.
After centrifugation at 1100 g for 2 minutes, images of the pellets before and after LPS treatment were captured using a microscope (Carl Zeiss, AXIO VERT.A1). After LPS treatment, the pellet appeared as scattered debris (FIG. 18B) rather than uniform spheroids (FIG. 18A). This was observed under a microscope. The supernatant was collected and analyzed for inflammatory cytokines such as TNF-α and IL-6 using an EnVision® multimode plate reader (PerkinElmer). A bead-based cytokine assay was performed using the AlphaLISA immunoassay on the EnVision® instrument. TNF-α(human) AlphaLISA Detection Kit, 500 assay points (PerkinElmer, #AL208C) was used for TNF-α, and the IL-6 (human) AlphaLISA Detection Kit, 500 assay points (PerkinElmer, #AL223C) was used for IL-6. Cytokine levels were determined depending on the concentration of each antibody.

B1: P001009: phage display anti-CD200R1 clone; VH SEQ ID NO: 79, VL SEQ ID NO: 94 (antibody, V domains shown)
VH: EVQLLESGGGLVQPGGSLRLSCAASGFTFSSYDMSWVRQAPGKGLEWVSWISHGGGSIYYADSVKGRFTISRDNSKNTLYLQMNSLRAEDTAVYYCARDAPAYSAPLFDYWGQGTLVTVSS
VL: QSVLTQPPSASGTPGQRVTISCSGSSSNIGNNAVNWYQQLPGTAPKLLIYYDSNRPSGVPDRFSGSKSGTSASLAISGLRSEDEADYYCAAWDDSLSGYVFGGGTKLTVL
cell binding ability, IgG4 or LALAPG mutants ([1]; Jurkat-CD200R1 cells): highest efficacy
TNF-α ([2]; log [Ab] (M) −7): 619.6 ± 12.3 pg/mL
TNF-α ([2]; log [Ab] (M) −8): 1259.1 ± 29.9 pg/mL
TNF-α ([2]; log [Ab] (M) −9): 2035.8 ± 108.9 pg/mL
TNF-α ([2]; log [Ab] (M) −10): 4148.8 ± 208.7 pg/mL
TNF-α ([2]; log [Ab] (M) −11): 5038.4 ± 7.7 pg/mL
TNF-α ([2]; log [Ab] (M) −12): 5128.6 ± 667.6 pg/mL

B2: P001009v1: P001009 variant, LC S52 and LC S94 substituted with K and R; VH SEQ ID NO: 79 (antibody, V domains shown)
VH: B1 VH
VL: B1 VL with S53K, S95R
binding ability to Jurkat-CD200R1 ([1]; serial dilution from 100 nM): highest binding ability
TNF-α ([2]; log [Ab] (M) −7): 146.7 ± 23.8 pg/mL
TNF-α ([2]; log [Ab] (M) −8): 609.5 ± 25.6 pg/mL
TNF-α ([2]; log [Ab] (M) −9): 1039.8 ± 54.7 pg/mL
TNF-α ([2]; log [Ab] (M) −10): 3352.5 ± 189.8 pg/mL
TNF-α ([2]; log [Ab] (M) −11): 4753.2 ± 96.1 pg/mL
TNF-α ([2]; log [Ab] (M) −12): 4082.1 ± 964.6 pg/mL
TNF-α level ([2]; low nanomolar (nM) drug concentrations): maintained low inflammatory cytokine levels
